The data set deals with the molecule itself. Nature of the data set: FPLC gel filtration before and after sonication (self-association). Background: SEC sorts molecules by how far they enter the pores of the column.

B1: 6H-15mer-CBD fusion protein (dragline spider silk 15mer fused to Clostridium cellulovorans CBDclos, with His tags and S-tag) (other)
chain: MHHHHHHSSGLVPRGSGMKETAAAKFERQHMDSPDLGTDDDDKAMASGRGGLGGQGAGAAAAAGGAGQGGYGGLGSQGTSGRGGLGGQGAGAAAAAGGAGQGGYGGLGSQGTSGRGGLGGQGAGAAAAAGGAGQGGYGGLGSQGTSGRGGLGGQGAGAAAAAGGAGQGGYGGLGSQGTSGRGGLGGQGAGAAAAAGGAGQGGYGGLGSQGTSGRGGLGGQGAGAAAAAGGAGQGGYGGLGSQGTSGRGGLGGQGAGAAAAAGGAGQGGYGGLGSQGTSGRGGLGGQGAGAAAAAGGAGQGGYGGLGSQGTSGRGGLGGQGAGAAAAAGGAGQGGYGGLGSQGTSGRGGLGGQGAGAAAAAGGAGQGGYGGLGSQGTSGRGGLGGQGAGAAAAAGGAGQGGYGGLGSQGTSGRGGLGGQGAGAAAAAGGAGQGGYGGLGSQGTSGRGGLGGQGAGAAAAAGGAGQGGYGGLGSQGTSGRGGLGGQGAGAAAAAGGAGQGGYGGLGSQGTSGRGGLGGQGAGAAAAAGGAGQGGYGGLGSQGTSMAATSSMSVEFYNSNKAAQTNSITPIIKITNTADSDLNLNDVKVRYYYTSDGTQGQTFWGDHAGALLGNSYVDNTGKVTANFVKETASPTSTYDTYVEFGFASGAATLKKGQFITIQGRITKSDWSNYAQTNDYSFDASSSTPVVNPKVTGYIGGAKVLGTAPGPDVPSSIINPTSATFDLEHHHHHH
notes: Expressed in E. coli BL21(DE3) from pET30a and purified on Ni-NTA; also called Silk-CBD; 6H-Silk-CBD
Take B1: the binding result is recorded as “binds”.
